According to patent US20150246949A1, “Desmoglein 2 (DSG2) Binding Proteins and Uses Therefor” (UNIVERSITY OF WASHINGTON THROUGH ITS CENTER FOR …, priority 2012, published 2015):
Where a chain is given by its changes, count along the chain named. Names may count otherwise.

B1: dimeric Ad3 fiber knob mutant D261N, L296R (designed binder)
chain: MKVSALKEKVSALKEKVSALKEKVSALKEKVSALKEGSGGGSGGGSGGGSNSIALKNNTLWTGPKPEANCIIEYGKQNPDSKLTLILVKNGGIVNGYVTLMGASDYVNTLFKNKNVSINVELYFDATGHILPDSSSLKTDLELKYKQTADFSARGFMPSTTAYPFVLPNAGTHNENYIFGQCYYKASNGALFPLEVTVMLNKRLPDSRTSYVMTFLWSLNAGRAPETTQATLITSPFTFSYIREDD
notes: also called D261, L296R; combination of D261N and L296R
B2: dimeric Ad3 fiber knob mutant L296R (designed binder)
chain: B1 chain with N188D
B3: dimeric Ad3 fiber knob mutant S190P (designed binder)
chain: B1 chain with S117P, N188D, R223L
notes: also called 5190P [sic]
B4: dimeric Ad3 fiber knob mutant V189G (designed binder)
chain: B1 chain with V116G, N188D, R223L
B5: dimeric Ad3 fiber knob mutant N186D, D261N (designed binder)
chain: B1 chain with N113D, R223L
notes: also called combination of N186D and D261N
B6: dimeric Ad3 fiber knob mutant N186D (designed binder)
chain: B1 chain with N113D, N188D, R223L
B7: dimeric Ad3 fiber knob mutant E299V (designed binder)
chain: B1 chain with N188D, R223L, E226V
B8: K217E+F224S (protein)
chain: B1 chain with K144E, F151S, N188D, R223L
B9: dimeric Ad3 fiber knob mutant N186D, D261N, L296R (designed binder)
chain: B1 chain with N113D
notes: also called mutant with mutations in all three areas (N185, D261, L296)
B10: Ad3 fiber knob mutant E248G+K258E without dimerization domain (ligand)
chain: NKLCSKLGNGLTFDSSNSIALKNNTLWTGPKPEANCIIEYGKQNPDSKLTLILVKNGGIVNGYVTLMGASDYVNTLFKNKNVSINVELYFDATGHILPDSSSLKTDLELKYKQTADFSARGFMPSTTAYPFVLPNAGTHNGNYIFGQCYYEASDGALFPLEVTVMLNKRLPDSRTSYVMTFLWSLNAGLAPETTQATLITSPFTFSYIREDD
notes: range 108-319; not shown: N-terminal 6-His tag of pQE30 and linker
B11: Ad3 fiber knob mutant N293S without dimerization domain (ligand)
chain: B10 chain with G141E, E151K, N186S
notes: range 108-319; also called N293S/noDD; not shown: N-terminal 6-His tag of pQE30 and linker
B12: Ad3 fiber knob mutant K217E+F224S without dimerization domain (ligand)
chain: B10 chain with K110E, F117S, G141E, E151K
notes: range 108-319; also called K217E/F224S mutant (non-dimerized form); not shown: N-terminal 6-His tag of pQE30 and linker
B13: Ad3 fiber knob mutant F224L without dimerization domain (ligand)
chain: B10 chain with F117L, G141E, E151K
notes: as for B10

These molecules were tested against T1, human DSG2 on cells (HeLa cells; polarized T84 cells) (human, UniProt Q14126 50-1118) (assay: cell-based or functional assay). Conditions: not given.
T1 sequence: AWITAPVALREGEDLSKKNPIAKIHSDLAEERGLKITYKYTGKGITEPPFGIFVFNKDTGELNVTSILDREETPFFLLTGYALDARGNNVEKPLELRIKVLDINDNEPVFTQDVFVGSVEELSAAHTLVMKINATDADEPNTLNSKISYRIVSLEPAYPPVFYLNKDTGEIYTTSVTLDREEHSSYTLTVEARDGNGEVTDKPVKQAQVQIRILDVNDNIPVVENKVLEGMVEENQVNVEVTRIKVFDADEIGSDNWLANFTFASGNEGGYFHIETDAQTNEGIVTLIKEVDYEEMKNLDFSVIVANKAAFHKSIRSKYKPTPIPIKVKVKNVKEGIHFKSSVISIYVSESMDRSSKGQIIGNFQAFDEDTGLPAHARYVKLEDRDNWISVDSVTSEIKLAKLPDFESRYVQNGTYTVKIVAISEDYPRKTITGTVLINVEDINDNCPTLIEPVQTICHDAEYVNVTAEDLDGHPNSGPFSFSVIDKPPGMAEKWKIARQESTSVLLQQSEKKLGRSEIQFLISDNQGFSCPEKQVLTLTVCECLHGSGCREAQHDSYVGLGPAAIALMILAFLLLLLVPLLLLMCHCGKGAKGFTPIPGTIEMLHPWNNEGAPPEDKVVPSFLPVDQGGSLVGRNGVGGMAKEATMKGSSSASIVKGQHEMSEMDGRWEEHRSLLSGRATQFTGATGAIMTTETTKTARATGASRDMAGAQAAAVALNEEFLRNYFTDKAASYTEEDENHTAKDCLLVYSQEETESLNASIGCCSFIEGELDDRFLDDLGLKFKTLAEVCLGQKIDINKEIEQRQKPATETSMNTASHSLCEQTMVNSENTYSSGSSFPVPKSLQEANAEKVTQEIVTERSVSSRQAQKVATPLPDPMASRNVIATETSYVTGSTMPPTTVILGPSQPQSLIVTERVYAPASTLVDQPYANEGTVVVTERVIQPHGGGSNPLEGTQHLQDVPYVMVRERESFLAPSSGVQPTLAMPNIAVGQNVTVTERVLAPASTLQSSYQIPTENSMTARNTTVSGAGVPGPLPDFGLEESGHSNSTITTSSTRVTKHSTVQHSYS

Molecule | Inhibition of infection in the presence of dimeric knob (JO-1 = 100%) [%]
B1 | 1.5
B2 | 5.1
B3 | 30.9
B4 | 54
B5 | 5.2
B6 | 32.7
B7 | 50.7

Each molecule was assayed on polarized colon cancer T84 cells (assay: Transepithelial electrical resistance (TEER) permeability assay). Conditions: dimeric affinity-enhanced mutants; TEER at 4 hours; N=3.
Type: cell-based
Protocol: FIG. 5. Correlation of reduced DSG2 binding with the ability to open epithelial junctions. A) Transepithelial electrical resistance (TEER) measured on polarized colon cancer T84 cells. Cells were cultured in transwell chambers until the TEER was constant, i.e. tight junctions had formed. A total of 5 μg of dimeric Ad3 fiber knobs in PBS was then added for 1 hour to the apical chamber. TEER was measured at the indicated time points. N=6. For time points 1.5 and 4 hours the difference between JO-1 vs D261N and N186D was significant (p<0.01). The arrows indicate the addition and removal of Ad3 fiber knobs. B) Enhancement of irinotecan therapy. A total of 4×10^6 A549 cells were injected subcutaneously into CB17-SCID/beige mice. Once the tumor reached a volume of ˜100 mm^3 (day 15 after implantation), the mice were injected intravenously with 2 mg/kg JO-1, E299V, N186D, or PBS, followed by an intravenous injection of irinotecan (37.5 mg/kg) one hour later. The treatment was repeated on day 25. N=5. […] The difference between “irinotecan” vs “JO-1+irinotecan” was significant (p<0.01) from day 20 on.
FIG. 9. Analysis of dimeric Ad3 fiber knob mutants with increased affinity to DSG2. A) Competition of Ad3-GFP virus infection on HeLa cells with dimeric affinity-enhanced mutant Y250F and JO-1 (dimeric wt Ad3 fiber knob). The experimental setting is as described for FIG. 3C. left panel: percentage of GFP positive cells. Right panel: mean fluorescence intensity. N=3. The standard deviation was less than 10%. B) Competition of Ad3-GFP virus infection on HeLa cells by Ad3 knob mutants with enhanced DSG2 binding but without dimerization domain. 1.5×10^5 HeLa cells were seeded into 24 well plates. Cells were incubated with the Ad3 knob mutants at the increasing concentrations for one hour at room temperature. 100 pfu/cell of Ad3GFP virus were then added and GFP expression was analyzed 18 hours later. C) TEER on colon cancer T84 cells. The experimental setting was the same as for FIG. 5A. The TEER at 4 hours is shown. N=3.
A total of 5×10^5 T84 cells were seeded in 12 mm transwell inserts (PET membrane, with 0.4 μm pore size (Corning, N.Y.) and cultured for >14 days until transepithelial electrical resistance (TEER) was stable. Culture medium was changed every 2-3 days. The cells were exposed to DSG2 ligands (20 μg/ml) in adhesion medium (DMEM, 1% FBS, 2 mM MgCl2, 20 mM HEPES) for 15 min at room temperature and TEER was measured and calculated as described elsewhere (39).

Molecule | TEER compared to JO-1
B8 | significantly higher

The molecules below were run against T2, Recombinant human DSG2 protein (Leinco Technologies) (human, UniProt Q14126 50-609) (assay: Western blot of dimeric knob (trimer band), soluble recombinant DSG2 as probe, anti-DSG2 mAb). Conditions: not given.
T2 construct: also called soluble DSG2; soluble recombinant DSG2
T2 sequence: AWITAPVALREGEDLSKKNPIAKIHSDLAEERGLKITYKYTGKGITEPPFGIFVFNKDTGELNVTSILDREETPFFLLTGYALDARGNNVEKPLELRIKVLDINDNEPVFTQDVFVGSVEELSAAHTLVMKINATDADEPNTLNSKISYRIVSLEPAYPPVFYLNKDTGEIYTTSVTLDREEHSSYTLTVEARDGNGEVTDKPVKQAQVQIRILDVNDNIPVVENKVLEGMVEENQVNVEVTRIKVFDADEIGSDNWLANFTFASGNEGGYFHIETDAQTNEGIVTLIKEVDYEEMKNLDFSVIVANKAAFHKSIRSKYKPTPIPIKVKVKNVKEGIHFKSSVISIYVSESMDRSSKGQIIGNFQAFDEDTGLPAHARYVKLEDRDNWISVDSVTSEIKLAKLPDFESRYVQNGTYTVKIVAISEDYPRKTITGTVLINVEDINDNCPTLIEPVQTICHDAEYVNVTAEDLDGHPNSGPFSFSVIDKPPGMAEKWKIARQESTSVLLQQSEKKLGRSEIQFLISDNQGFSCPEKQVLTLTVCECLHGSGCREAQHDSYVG

Molecule | Western blot residual DSG2 binding (wtAd3 knob = 100%) [%]
B1 | 7
B2 | 3.6
B9 | 0
B3 | 7.1
B4 | 14
B5 | 7
B6 | 5.3
B7 | 20

What follows are molecules tested against T1, human DSG2 on cells (HeLa cells; …) (assay: attachment of 3H-labelled Ad3 virus (competitor) to HeLa cells pre-incubated with the dimeric knob). Conditions: not given.

Molecule | Inhibition of attachment in the presence of dimeric knob (JO-1 = 100%) [%]
B1 | 20.1
B2 | 73.7
B3 | 73.4
B4 | 81
B5 | 23.5
B6 | 56.5
B7 | 97.3

The molecules below were run against T2, Recombinant human DSG2 protein (Leinco …) (assay: SPR (BIAcore 3000), DSG2 immobilised on the sensor chip, knobs injected at 2.5 to 10 µg/ml, BIAeval). Conditions: not given.

Molecule | Kd [nM] | koff [s⁻¹] | kon [M⁻¹ s⁻¹]
B10 | 49.4 | 0.00147 | 29800
B11 | 73.2 | 8.7e-05 | 1190
B12 | 53.9 | 0.00317 | 58800
B13 | 78.7 | 0.00269 | 34200
